The source of these data is patent publication US20200255503A1 (Regeneron, published 2020).

The target of assay [1] is T1, Fel d1 (B-A)-mmH (cat (Felis domesticus)).
T1 construct: Expressed in CHO cells; also called rFel d1.mmH; rFel d1-mmH
The assay can be described thus: SPR, mAb captured, Fel d1 (B-A)-mmH injected, 25 C. (In general: Surface plasmon resonance follows binding to a sensor surface in real time, without labels.)
Procedure: Antibody-antigen association was monitored for 3 to 5 minutes, and the dissociation of antigen from the captured monoclonal antibody (in running buffer alone at 25° C.) was monitored for 10 or 15 minutes. Kinetic association (kₐ) and dissociation (kₐ) rate constants were determined by processing and fitting the data to a 1:1 binding model using Scrubber 2.0 curve fitting software. Binding dissociation equilibrium constants (KD) and dissociative half-lives (t_{1/2}) were calculated from the kinetic rate constants as: KD=kd/kₐ and t_{1/2}=ln(2)/kₐ.

In another assay the target is rFel d1.mFc (dimeric) (cat (Felis domesticus)). Briefly: SPR Biacore T200, mAb captured by anti-human Fc, antigen injected.
Assay [2] concerns the target T1, Fel d1 (B-A)-mmH. The assay is described as above.
Source text: (§1) The binding kinetic parameters were obtained by globally fitting the double reference subtracted data to a 1:1 binding model with mass transport limitation using Biacore T200 Evaluation Software, version 1.0.

A word on the Kd: it is the concentration at which binding is half-saturated. Read a high Kd as a looser complex. In general, koff refers to the first-order rate constant of dissociation. Read a low koff as slow dissociation. One may read the kon as the rate constant with which the complex forms.

T1 sequence (chain, as listed by the source limits assumed): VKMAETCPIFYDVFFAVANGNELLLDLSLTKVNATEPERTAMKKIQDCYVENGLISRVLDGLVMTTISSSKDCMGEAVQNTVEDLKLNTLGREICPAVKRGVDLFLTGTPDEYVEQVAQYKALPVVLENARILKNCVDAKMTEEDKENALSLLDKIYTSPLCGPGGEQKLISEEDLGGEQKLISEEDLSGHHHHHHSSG
Sequence of rFel d1.mFc (dimeric) (cat (Felis domesticus)) (chain, as listed by the source limits assumed): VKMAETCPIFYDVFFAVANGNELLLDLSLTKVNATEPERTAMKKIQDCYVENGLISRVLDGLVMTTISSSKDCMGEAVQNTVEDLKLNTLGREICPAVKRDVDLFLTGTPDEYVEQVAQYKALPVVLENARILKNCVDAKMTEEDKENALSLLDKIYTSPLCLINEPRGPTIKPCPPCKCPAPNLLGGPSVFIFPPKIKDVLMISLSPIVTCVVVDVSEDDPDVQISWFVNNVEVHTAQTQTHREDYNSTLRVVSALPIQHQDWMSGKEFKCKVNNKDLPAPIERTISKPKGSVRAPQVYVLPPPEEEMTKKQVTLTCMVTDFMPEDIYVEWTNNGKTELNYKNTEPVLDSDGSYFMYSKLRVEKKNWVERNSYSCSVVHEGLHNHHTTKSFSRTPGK
Source text for rFel d1.mFc (dimeric): as §1

B1: H4H1232N (antibody, human IgG4, V domains shown)
VH: EVQLVESGGGLVKPGGSLRLSCAASGFTFRNYNINWVRQAPGKGLEWVSLISGSSSYIYYADSVKGRFTVSRDNAKNSLYLQMNSLRAEDTAVYYCARRTLSYYVMDVWGQGTTVTVSS
VL: DIQVTQSPSPLSASVGDRVTITCRASQGISNYLAWYQQKPGRVPQLLIYAASTLQSGVPSRFSGSGSGTDFTLTISSLQPEDVATYYCQKYNSAPYTFGQGTKLEIK
notes: human IgG4 Fc (prefix H4H); also called REGN1908
In the assay with Fel d1 (B-A)-mmH [1], B1 had a Kd of 0.144 nM, a koff of 0.000258 s⁻¹, an association rate constant (kon) of 1.79e+06 M⁻¹ s⁻¹ and a t1/2 of 45 min. In the assay with rFel d1.mFc (dimeric), the Kd was found to be 0.0316 nM, the T1/2 was determined as 159 min, the koff was 7.25e-05 s⁻¹ and the kon was found to be 2.3e+06 M⁻¹ s⁻¹. For the same molecule, in the assay with Fel d1 (B-A)-mmH [2], binding was characterised by a dissociation constant (Kd) of 0.187 nM, the T1/2 was determined as 46 min, the koff amounted to 0.000251 s⁻¹ and the kon was found to be 1.34e+06 M⁻¹ s⁻¹.
